Data as given in US20150344570A1 (published 2015).

B1: GpH7-B3 variant S337_07I/GpL16-k0 (antibody, human IgG1, kappa)
heavy: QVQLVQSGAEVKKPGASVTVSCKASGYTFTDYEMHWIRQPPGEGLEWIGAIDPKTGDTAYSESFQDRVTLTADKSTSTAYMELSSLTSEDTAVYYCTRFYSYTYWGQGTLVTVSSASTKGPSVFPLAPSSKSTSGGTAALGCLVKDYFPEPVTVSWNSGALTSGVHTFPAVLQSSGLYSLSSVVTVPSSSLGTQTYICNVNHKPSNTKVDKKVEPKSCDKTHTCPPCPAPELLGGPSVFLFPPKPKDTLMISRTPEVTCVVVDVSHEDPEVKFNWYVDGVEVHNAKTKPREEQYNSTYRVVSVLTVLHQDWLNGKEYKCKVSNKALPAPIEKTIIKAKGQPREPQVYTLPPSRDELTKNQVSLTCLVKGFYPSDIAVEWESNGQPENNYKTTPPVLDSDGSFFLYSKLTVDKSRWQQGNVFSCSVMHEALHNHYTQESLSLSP
light: DIVMTQSPLSLPVTPGEPASISCQASESLVHSNRNTYLHWYLQKPGQSPQLLIYKVSNRFSGVPDRFSGSGSGTDFTLKISRVEAEDVGVYYCSQNTHVPPTFGQGTKVEIERTVAAPSVFIFPPSDEQLKSGTASVVCLLNNFYPREAKVQWKVDNALQSGNSQESVTEQDSKDSTYSLSSTLTLSKADYEKHKVYACEVTHQGLSSPVTKSFNRGEC
notes: also called Ho Ab S337_07I
B2: GpH7-B3 variant T335_06M/GpL16-k0 (antibody, human IgG1, kappa)
heavy: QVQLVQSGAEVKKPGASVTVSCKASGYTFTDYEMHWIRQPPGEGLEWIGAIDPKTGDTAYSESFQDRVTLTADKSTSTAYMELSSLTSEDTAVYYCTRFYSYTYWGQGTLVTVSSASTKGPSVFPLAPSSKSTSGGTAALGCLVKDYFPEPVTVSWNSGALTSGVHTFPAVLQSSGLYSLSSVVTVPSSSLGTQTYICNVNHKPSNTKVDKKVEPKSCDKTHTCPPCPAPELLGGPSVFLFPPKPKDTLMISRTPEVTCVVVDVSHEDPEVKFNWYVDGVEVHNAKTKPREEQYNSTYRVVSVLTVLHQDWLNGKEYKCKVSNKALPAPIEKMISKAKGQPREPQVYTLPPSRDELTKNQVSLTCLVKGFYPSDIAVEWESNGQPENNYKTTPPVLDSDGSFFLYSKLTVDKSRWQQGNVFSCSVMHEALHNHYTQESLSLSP
light: B1 light
notes: also called Ho Ab T335_06M
B3: GpH7-B3 variant S324_19Q/GpL16-k0 (antibody, human IgG1, kappa)
heavy: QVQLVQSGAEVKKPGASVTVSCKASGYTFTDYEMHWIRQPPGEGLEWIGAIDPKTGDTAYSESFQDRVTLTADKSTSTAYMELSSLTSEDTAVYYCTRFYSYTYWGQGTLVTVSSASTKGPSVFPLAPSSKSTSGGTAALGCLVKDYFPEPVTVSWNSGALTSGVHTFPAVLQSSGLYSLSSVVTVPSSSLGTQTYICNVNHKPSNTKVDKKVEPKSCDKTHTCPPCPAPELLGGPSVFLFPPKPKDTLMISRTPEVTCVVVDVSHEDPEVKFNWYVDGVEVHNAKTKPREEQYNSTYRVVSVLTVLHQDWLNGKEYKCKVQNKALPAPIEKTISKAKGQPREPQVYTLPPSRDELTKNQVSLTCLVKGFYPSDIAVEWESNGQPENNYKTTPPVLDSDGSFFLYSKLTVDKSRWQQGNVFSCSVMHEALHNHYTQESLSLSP
light: B1 light
notes: also called Ho Ab S324_19Q
B4: GpH7-B3 variant S324_12R/GpL16-k0 (antibody, human IgG1, kappa)
heavy: not shown
light: B1 light
notes: also called Ho Ab S324_12R
B5: GpH7-B3 variant S337_03V/GpL16-k0 (antibody, human IgG1, kappa)
heavy: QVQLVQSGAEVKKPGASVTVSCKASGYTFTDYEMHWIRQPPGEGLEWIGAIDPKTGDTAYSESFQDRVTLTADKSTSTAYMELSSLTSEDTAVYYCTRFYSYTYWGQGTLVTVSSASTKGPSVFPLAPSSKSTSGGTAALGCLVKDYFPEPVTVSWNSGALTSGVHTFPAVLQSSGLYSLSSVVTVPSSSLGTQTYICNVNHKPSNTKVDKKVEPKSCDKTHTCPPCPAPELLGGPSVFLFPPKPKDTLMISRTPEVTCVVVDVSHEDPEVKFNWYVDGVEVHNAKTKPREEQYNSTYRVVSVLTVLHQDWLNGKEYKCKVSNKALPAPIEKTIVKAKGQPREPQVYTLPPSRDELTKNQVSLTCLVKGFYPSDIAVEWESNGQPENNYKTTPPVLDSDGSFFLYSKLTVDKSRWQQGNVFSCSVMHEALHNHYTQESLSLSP
light: B1 light
notes: also called Ho Ab S337_03V
B6: GpH7-B3 variant S298_14T/GpL16-k0 (antibody, human IgG1, kappa)
heavy: not shown
light: B1 light
notes: also called Ho Ab S298_14T
B7: GpH7-B3 variant S324_20W/GpL16-k0 (antibody, human IgG1, kappa)
heavy: not shown
light: B1 light
notes: also called Ho Ab S324_20W
B8: GpH7-B3 variant S298_18N/GpL16-k0 (antibody, human IgG1, kappa)
heavy: not shown
light: B1 light
notes: also called Ho Ab S298_18N
B9: GpH7-B3 variant S298_16H/GpL16-k0 (antibody, human IgG1, kappa)
heavy: not shown
light: B1 light
notes: also called Ho Ab S298_16H
B10: GpH7-B3 variant S298_19Q/GpL16-k0 (antibody, human IgG1, kappa)
heavy: not shown
light: B1 light
notes: also called Ho Ab S298_19Q
B11: GpH7-B3 variant S337_20W/GpL16-k0 (antibody, human IgG1, kappa)
heavy: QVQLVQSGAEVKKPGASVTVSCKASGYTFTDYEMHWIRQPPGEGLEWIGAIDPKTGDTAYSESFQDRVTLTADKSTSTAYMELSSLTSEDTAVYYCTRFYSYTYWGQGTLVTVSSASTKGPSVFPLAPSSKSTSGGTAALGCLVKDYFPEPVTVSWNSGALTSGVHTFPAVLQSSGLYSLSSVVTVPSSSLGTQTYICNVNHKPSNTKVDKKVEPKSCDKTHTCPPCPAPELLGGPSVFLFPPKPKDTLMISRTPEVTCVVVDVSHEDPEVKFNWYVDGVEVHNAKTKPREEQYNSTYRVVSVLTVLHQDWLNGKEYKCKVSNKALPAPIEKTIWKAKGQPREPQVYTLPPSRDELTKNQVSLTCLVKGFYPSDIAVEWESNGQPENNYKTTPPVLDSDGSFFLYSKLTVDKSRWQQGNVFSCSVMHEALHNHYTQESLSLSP
light: B1 light
notes: also called Ho Ab S337_20W
B12: GpH7-B3 variant S337_10E/GpL16-k0 (antibody, human IgG1, kappa)
heavy: not shown
light: B1 light
notes: also called Ho Ab S337_10E
B13: GpH7-B3 variant S337_12R/GpL16-k0 (antibody, human IgG1, kappa)
heavy: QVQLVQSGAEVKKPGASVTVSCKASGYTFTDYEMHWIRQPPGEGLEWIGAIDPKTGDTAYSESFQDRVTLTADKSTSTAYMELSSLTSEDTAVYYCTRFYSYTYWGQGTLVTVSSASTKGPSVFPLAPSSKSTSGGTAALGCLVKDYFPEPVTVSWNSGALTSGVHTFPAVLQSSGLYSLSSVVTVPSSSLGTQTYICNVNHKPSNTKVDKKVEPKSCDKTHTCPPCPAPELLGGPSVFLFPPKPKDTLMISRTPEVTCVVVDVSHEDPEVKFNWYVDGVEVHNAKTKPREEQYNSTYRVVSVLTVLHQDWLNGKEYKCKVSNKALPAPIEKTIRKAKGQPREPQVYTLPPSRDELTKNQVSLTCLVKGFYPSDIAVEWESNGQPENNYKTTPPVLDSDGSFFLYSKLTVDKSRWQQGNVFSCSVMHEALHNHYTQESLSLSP
light: B1 light
notes: also called Ho Ab S337_12R
B14: GpH7-B3 variant S324_16H/GpL16-k0 (antibody, human IgG1, kappa)
heavy: not shown
light: B1 light
notes: also called Ho Ab S324_16H
B15: GpH7-B3 variant T335_09D/GpL16-k0 (antibody, human IgG1, kappa)
heavy: not shown
light: B1 light
notes: also called Ho Ab T335_09D
B16: GpH7-B3 variant S298_12R/GpL16-k0 (antibody, human IgG1, kappa)
heavy: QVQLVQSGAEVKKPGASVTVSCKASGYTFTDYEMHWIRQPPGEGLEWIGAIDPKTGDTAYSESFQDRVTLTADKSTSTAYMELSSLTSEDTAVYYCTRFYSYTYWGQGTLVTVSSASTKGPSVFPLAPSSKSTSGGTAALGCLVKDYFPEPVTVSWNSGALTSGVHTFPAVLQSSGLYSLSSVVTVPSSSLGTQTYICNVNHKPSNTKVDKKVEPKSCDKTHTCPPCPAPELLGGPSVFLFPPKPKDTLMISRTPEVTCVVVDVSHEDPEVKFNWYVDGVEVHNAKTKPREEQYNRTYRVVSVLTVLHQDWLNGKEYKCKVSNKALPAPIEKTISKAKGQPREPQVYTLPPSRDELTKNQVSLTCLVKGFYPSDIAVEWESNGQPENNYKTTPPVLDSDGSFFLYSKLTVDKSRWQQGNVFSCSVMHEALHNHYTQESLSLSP
light: B1 light
notes: also called Ho Ab S298_12R
B17: GpH7-B3 variant S324_14T/GpL16-k0 (antibody, human IgG1, kappa)
heavy: not shown
light: B1 light
notes: also called Ho Ab S324_14T
B18: GpH7-B3 variant V266_19Q/GpL16-k0 (antibody, human IgG1, kappa)
heavy: not shown
light: B1 light
notes: also called Ho Ab V266_19Q
B19: GpH7-B3 variant S324_18N/GpL16-k0 (antibody, human IgG1, kappa)
heavy: not shown
light: B1 light
notes: also called Ho Ab S324_18N
B20: GpH7-B3 variant S324_15Y/GpL16-k0 (antibody, human IgG1, kappa)
heavy: not shown
light: B1 light
notes: also called Ho Ab S324_15Y
B21: GpH7-B3 variant S324_11K/GpL16-k0 (antibody, human IgG1, kappa)
heavy: not shown
light: B1 light
notes: also called Ho Ab S324_11K
B22: GpH7-B3 variant T335_05P/GpL16-k0 (antibody, human IgG1, kappa)
heavy: not shown
light: B1 light
notes: also called Ho Ab T335_05P
B23: GpH7-B3 variant S337_08L/GpL16-k0 (antibody, human IgG1, kappa)
heavy: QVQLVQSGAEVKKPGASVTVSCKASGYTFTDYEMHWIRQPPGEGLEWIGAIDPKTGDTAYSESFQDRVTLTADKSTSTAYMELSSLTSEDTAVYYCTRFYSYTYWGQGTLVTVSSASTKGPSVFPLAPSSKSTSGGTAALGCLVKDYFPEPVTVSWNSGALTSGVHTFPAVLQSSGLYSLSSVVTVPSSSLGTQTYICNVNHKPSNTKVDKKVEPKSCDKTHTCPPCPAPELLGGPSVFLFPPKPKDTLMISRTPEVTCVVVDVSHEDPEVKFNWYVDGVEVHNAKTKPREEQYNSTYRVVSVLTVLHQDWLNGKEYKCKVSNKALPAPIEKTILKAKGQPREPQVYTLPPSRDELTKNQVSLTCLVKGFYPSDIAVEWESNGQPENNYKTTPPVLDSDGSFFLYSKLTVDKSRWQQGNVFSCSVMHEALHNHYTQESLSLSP
light: B1 light
notes: also called Ho Ab S337_08L
B24: GpH7-B3 variant S337_19Q/GpL16-k0 (antibody, human IgG1, kappa)
heavy: not shown
light: B1 light
notes: also called Ho Ab S337_19Q
B25: GpH7-B3 variant S337_01G/GpL16-k0 (antibody, human IgG1, kappa)
heavy: not shown
light: B1 light
notes: also called Ho Ab S337_01G
B26: GpH7-B3 variant S337_09D/GpL16-k0 (antibody, human IgG1, kappa)
heavy: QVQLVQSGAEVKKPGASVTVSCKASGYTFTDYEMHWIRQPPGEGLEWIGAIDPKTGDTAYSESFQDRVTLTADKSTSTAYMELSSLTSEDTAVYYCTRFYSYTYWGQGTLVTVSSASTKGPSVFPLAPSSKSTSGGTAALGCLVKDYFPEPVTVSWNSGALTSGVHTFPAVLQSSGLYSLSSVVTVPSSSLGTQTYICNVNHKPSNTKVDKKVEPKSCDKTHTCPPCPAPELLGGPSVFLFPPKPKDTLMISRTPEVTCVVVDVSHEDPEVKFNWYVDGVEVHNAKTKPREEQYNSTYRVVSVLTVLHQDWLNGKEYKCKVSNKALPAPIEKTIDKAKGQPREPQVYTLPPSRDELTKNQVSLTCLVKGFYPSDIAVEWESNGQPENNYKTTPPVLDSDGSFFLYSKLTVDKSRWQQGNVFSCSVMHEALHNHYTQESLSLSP
light: B1 light
notes: also called Ho Ab S337_09D
B27: GpH7-B3 variant T335_07I/GpL16-k0 (antibody, human IgG1, kappa)
heavy: not shown
light: B1 light
notes: also called Ho Ab T335_07I
B28: GpH7-B3 variant S298_20W/GpL16-k0 (antibody, human IgG1, kappa)
heavy: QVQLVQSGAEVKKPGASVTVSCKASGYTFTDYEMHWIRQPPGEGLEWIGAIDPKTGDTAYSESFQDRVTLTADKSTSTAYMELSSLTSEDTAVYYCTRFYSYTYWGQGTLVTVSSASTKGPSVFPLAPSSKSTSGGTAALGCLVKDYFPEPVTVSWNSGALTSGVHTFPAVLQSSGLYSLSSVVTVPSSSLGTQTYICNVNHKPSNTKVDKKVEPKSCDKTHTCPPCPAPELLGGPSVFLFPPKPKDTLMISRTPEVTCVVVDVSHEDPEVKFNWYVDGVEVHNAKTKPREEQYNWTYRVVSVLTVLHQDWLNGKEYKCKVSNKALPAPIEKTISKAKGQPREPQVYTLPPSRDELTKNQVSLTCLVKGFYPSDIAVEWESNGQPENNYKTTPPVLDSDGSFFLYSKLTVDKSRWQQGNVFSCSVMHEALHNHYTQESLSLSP
light: B1 light
notes: also called Ho Ab S298_20W

molecular target: T1, FcγRIa (human, UniProt P12314 16-292); assay: SPR (Biacore); Ho Ab vs HoCon Ab GpH7-B3/GpL16-k0
T1 construct: extracellular domain; Soluble extracellular domain expressed in FreeStyle293 cells, used as analyte in Biacore; also called FcgRI; 1a; not shown: His tag attached to the C terminus
T1 sequence (P12314 16-292): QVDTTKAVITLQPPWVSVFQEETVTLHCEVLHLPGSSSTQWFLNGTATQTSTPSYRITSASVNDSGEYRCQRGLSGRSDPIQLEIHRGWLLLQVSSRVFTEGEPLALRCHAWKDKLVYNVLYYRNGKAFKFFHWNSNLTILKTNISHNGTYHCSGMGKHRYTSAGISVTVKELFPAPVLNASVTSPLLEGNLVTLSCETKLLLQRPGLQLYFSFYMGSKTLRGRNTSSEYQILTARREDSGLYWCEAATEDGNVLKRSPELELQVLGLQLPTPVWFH
Procedure: Analysis of interaction between objective antibody and the FcγR was carried out using Biacore T100 (GE Healthcare). HBS-EP+ (GE Healthcare) was used as the running buffer, and the measurement temperature was set to 25° C. Chips produced by immobilizing the antigen peptide by the amine coupling method to a Series S Sencor Chip CM5 (GE Healthcare), or alternatively, chips produced by allowing preliminarily biotinylated antigen peptides to interact with and immobilize onto a Series S Sensor Chip SA (certified) (GE Healthcare) were used. Antibodies of interest were captured onto an antigen peptide-immobilized chip, and allowed to interact to each FcγR diluted with running buffer. To regenerate and repeatedly use the chip, the antibodies captured on the chip were washed off by reacting 10 mM glycine-HCl, pH 1.5.

Ho/Con_1a	Binder
105 relative binding, control = 100	B1
106 relative binding, control = 100	B2
111 relative binding, control = 100	B3
101 relative binding, control = 100	B4
105 relative binding, control = 100	B5
106 relative binding, control = 100	B6
112 relative binding, control = 100	B7
104 relative binding, control = 100	B8
107 relative binding, control = 100	B9
105 relative binding, control = 100	B10
104 relative binding, control = 100	B11
104 relative binding, control = 100	B12
105 relative binding, control = 100	B13
111 relative binding, control = 100	B14
107 relative binding, control = 100	B15
94.5 relative binding, control = 100	B16
112 relative binding, control = 100	B17
91.2 relative binding, control = 100	B18
111 relative binding, control = 100	B19
112 relative binding, control = 100	B20
100 relative binding, control = 100	B21
106 relative binding, control = 100	B22
105 relative binding, control = 100	B23
105 relative binding, control = 100	B24
102 relative binding, control = 100	B25
106 relative binding, control = 100	B26
105 relative binding, control = 100	B27
71.5 relative binding, control = 100	B28
